Test [1] deals with MtdL E341K mutant (Marinactinospora thermotolerans SCSIO 00652). The experiment in a line: SEC-MALS; static light scattering (SLC): Superdex 200 Increase column on an Akta Pure L system, on-line eight-angle static light scattering detector (DAWN HELEOS II) and differential refractive index detector; molar masses by ASTRA 7.0.1. (In gel filtration, larger molecules generally elute earlier.)

Test [2] concerns the target MtdL wildtype, His6-tagged (Marinactinospora thermotolerans SCSIO 00652). Described as above.

A word on the stoichiometry N: it is a count of units in the complex or per binding partner.

For MtdL E341K mutant (enzyme), the stoichiometry N in test [1] was 2.
In test [2], MtdL wildtype, His6-tagged (enzyme) yielded a stoichiometry N of 4.

(Values after PMC9937993, “Structures of the NDP-pyranose mutase belonging to glycosyltransferase family 75 reveal residues important for Mn^2+ coordination and substrate binding” (The Journal of Biological Chemistry, 2023).)
